Experimental data published in publication PMC7484176.

Molecular target: wild-type FtrA from Brucella abortus 2308 (Brucella abortus 2308)
Assay: SEC

## wild-type FtrA from Brucella abortus 2308 (natural protein)
  stoichiometry N: 2
